Substrate in series [1]: O=C1OC(c2ccc(O)cc2)(c2ccc(O[C@@H]3O[C@H](C(=O)O)[C@@H](O)[C@H](O)[C@H]3O)cc2)c2ccccc21
The series is described as follows: malachite green phosphate assay coupled to phosphatase CP3, A620. The format is biochemical, Homo sapiens. The following applies: acceptor substrate, PAPS as donor, 37 °C, 20 min.

Substrate in series [2]: [H][C@@]12CCc3cc(O[C@@H]4O[C@H](C(=O)O)[C@@H](O)[C@H](O)[C@H]4O)ccc3[C@@]1([H])CC[C@]1(C)[C@@H](O)CC[C@@]21[H]
Described as above. Format: biochemical, Homo sapiens. The following applies: acceptor substrate, PAPS as donor, 37 °C, 20 min.

As a reminder, the Km is the concentration of substrate that gives half-maximal velocity.

B1: human recombinant CHST10 (Homo sapiens) (protein)
chain: TFKDPDVYSAKQEFLFLTTMPEVRKLPEEKHIPEELKPTGKELPDSQLVQPLVYMERLELIRNVCRDDALKNLSHTPVSKFVLDRIFVCDKHKILFCQTPKVGNTQWKKVLIVLNGAFSSIEEIPENVVHDHEKNGLPRLSSFSDAEIQKRLKTYFKFFIVRDPFERLISAFKDKFVHNPRFEPWYRHEIAPGIIRKYRRNRTETRGIQFEDFVRYLGDPNHRWLDLQFGDHIIHWVTYVELCAPCEIMYSVIGHHETLEDDAPYILKEAGIDHLVSYPTIPPGITVYNRTKVEHYFLGISKRDIRRLYARFEGDFKLFGYQKPDFLLN
notes: commercial recombinant protein (R&D Systems 6140-ST)
With B1, the values for the Km in series [1] and in series [2] were 41.6 ± 2.4 µM and 73.9 ± 5.4 µM, respectively.

The values above are taken from PMC11989750, “Mating Increases CHST10 Activity in Rat Oviductal Mucosa to Induce the Synthesis of HNK-1 Glycoproteins: Possible Role in Sperm–Oviduct Interactions” (International Journal of Molecular Sciences, 2025).
